Reference: US20140223606, “COMPOSITIONS AND METHODS COMPRISING SEQUENCES HAVING MEGANUCLEASE ACTIVITY” (PIONEER HI BRED INTERNATIONAL INC, published 2014)
Residue numbers refer to the chain shown, from its start.

T1: LIG3-4(B82) (artificial)
T1 chain: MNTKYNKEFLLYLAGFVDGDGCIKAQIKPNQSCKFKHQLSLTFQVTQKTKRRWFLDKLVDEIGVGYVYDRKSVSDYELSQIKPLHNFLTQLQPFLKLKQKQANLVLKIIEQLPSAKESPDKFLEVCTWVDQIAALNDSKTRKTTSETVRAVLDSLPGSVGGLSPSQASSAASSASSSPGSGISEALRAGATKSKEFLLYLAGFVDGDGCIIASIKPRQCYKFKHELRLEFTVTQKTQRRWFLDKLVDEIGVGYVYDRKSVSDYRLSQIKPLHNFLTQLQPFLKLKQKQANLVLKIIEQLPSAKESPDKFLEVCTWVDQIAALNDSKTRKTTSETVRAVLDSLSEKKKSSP

T2: MHP14(L14-03) (artificial)
T2 chain: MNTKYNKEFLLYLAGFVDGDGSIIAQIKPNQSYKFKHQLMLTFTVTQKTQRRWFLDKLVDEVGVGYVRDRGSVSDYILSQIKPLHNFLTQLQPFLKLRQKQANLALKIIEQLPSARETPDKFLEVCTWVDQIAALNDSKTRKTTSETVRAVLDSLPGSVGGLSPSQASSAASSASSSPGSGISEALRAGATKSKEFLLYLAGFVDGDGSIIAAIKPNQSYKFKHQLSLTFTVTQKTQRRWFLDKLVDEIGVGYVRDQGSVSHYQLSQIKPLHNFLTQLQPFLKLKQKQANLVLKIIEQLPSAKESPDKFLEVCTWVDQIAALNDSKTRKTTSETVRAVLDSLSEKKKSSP

T3: MHP14(L14-04) (artificial)
T3 chain: T2 chain with Q31R, V62I, R98K, A105V, R116K, T118S

T4: MHP14(06) (artificial)
T4 chain: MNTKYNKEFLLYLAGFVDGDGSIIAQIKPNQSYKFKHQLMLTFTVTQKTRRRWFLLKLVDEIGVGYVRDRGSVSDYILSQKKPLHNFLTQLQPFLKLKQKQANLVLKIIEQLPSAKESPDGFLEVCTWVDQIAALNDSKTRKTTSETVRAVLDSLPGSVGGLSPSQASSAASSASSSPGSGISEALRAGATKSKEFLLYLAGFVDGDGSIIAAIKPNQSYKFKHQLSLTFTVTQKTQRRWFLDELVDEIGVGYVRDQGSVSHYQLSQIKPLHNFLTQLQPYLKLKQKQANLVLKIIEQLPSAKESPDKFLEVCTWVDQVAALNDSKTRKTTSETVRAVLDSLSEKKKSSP

T5: MHP14(01) (artificial)
T5 chain: T4 chain with G19S, S22C, R50Q, N103V, I132V, E244K, K308G

B1: LIG3-4 recognition site (dsDNA)
DNA 1: ATATACCTCACACGTACGCGTA
DNA 2: TACGCGTACGTGTGAGGTATAT
B2: MHP14 recognition site (dsDNA)
DNA 1: CAAACAGATTCACGTCAGATTT
DNA 2: AAATCTGACGTGAATCTGTTTG

Tests used:
Details in all cases: tags: NLS, 6xHis
LIG3-4(B82) = target: T1, LIG3-4(B82); assay: cell_activity; yeast 30 C; 22 C: 4
Procedure: (§1) A 3 mL culture of selective media (MP Biomedical) was inoculated with a single colony of the yeast screening strain and grown at 30° C. overnight. On the following day, a 50 ml YPD culture (MP Biomedical) was started with 2 ml of the overnight culture and grown at 30° C. overnight. On the following day, the cells were harvested by centrifugation at 4000 rpm. The cells were resuspended in 100 ml ice cold water and centrifuged again. The cells were then washed in 1.2 M sorbitol, followed by treatment with 2 ml of 10 mM Tris pH 8.0, 1 mM EDTA, 100 mM Lithium acetate, 10 mM DTT, 0.6M sorbitol for 30 minutes at 30° C. with shaking. The cells were recovered by centrifugation, washed in 40 ml 1.2M sorbitol and finally resuspended in 250 microliters of 1.2M sorbitol. 50 microliter aliquots were transferred to test tubes on ice. Up to 5 microliters of DNA (100-500 nanograms) were added. The suspension was transferred to a 0.2 cm electroporation cuvette, on ice. Electroporation was performed with a pulse charge at 1.5 kV, 200 ohms, 25 microF (pulse time of 5 milliseconds). 1 mL YPD media (MP Biomedical) was added and the cells were allowed to recover at 30° C. for 1-2 hr. The cells were centrifuged, resuspended in 100 uL 1M sorbitol and plated on selective media lacking leucine and containing 2% galactose. The resulting yeast colonies were incubated at various temperatures ranging from 22 to 37 degrees Celsius for 7-10 days. I-CreI and meganucleases derived from it have maximal activity at or above 37 degrees Celsius. Screening was performed at a range of temperatures from 22 to 37 degrees in order to observe increases in activity at lower temperatures which are relevant to certain biological systems (eg. plant cells, plant cell cultures, etc). At that time the red/white sectoring phenotype, indicative of meganuclease activity was observed. Colonies with increased white sectoring over the parental meganuclease (indicating colonies expressing a meganuclease with increased meganuclease activity), also referred to as “hits” and sometimes completely white, were isolated for further analysis.

MHP14(L14-03) = target: T2, MHP14(L14-03); assay: cell_activity; yeast 37 C; 28 C: 0
Procedure: as §1
(§2) A total of 15 MHP14 variants with increased activity were confirmed in the yeast system (as described in Example 6). Increased activity was observed across a range of temperatures: 28 degrees Celsius, 34 degrees Celsius and 37 degrees Celsius, as shown in Table 11.

MHP14(L14-04) = target: T3, MHP14(L14-04); assay: cell_activity; yeast 37 C; 28 C: 0
Procedure: as §1, §2

MHP14(06) = target: T4, MHP14(06); assay: cell_activity; yeast 37 C; 28 C: 0
Procedure: as §1, §2

MHP14(01) = target: T5, MHP14(01); assay: cell_activity; yeast 37 C; 28 C: 0
Procedure: as §1, §2

Row | Binder | activity (LIG3-4(B82)) | activity (MHP14(L14-03)) | activity (MHP14(L14-04)) | activity (MHP14(06)) | activity (MHP14(01))
1 | B1 | 4 score 0-4 |  |  |  | 
2 | B2 |  | 3 score 0-4 | 3 score 0-4 | 3.5 score 0-4 | 3 score 0-4
